Measurements: the Immune Epitope Database (IEDB)
Blank lines part the entries; values can stand above or below the sequence they belong to.

What was measured:
HLA-A*01:01 = experiment: IEDB peptide-MHC binding, purified MHC/direct/fluorescence; filed as Kd, often an IC50 or EC50 that approximates it; ≥ and ≤ were set here for values at or beyond the usual limits of such assays
HLA-A*02:01 [1] = experiment: as above
HLA-A*03:01 [2] = experiment: as above
HLA-A*11:01 = experiment: as above
HLA-A*26:01 [3] = experiment: as above
HLA-A*31:01 = experiment: as above
HLA-A*69:01 [4] = experiment: as above
HLA-B*07:02 = experiment: as above
HLA-B*08:01 = experiment: as above
HLA-B*27:05 = experiment: as above
HLA-B*35:01 = experiment: as above
HLA-B*44:02 = experiment: as above
HLA-B*15:01 [5] = experiment: as above
HLA-B*40:01 = experiment: as above
HLA-B*58:01 = experiment: as above
HLA-B*15:09 = experiment: as above; details: source organism: Yellow fever virus
HLA-B*18:01 [6] = experiment: as above; details: source organism: Yellow fever virus
HLA-B*46:01 [7] = experiment: as above; details: source organism: Yellow fever virus
HLA-B*48:01 = experiment: as above; details: source organism: Yellow fever virus
HLA-B*57:01 [8] = experiment: as above; details: source organism: Yellow fever virus
HLA-A*02:01 [9] = experiment: IEDB peptide-MHC binding, purified MHC/competitive/fluorescence; filed as Kd, often an IC50 or EC50 that approximates it; ≥ and ≤ were set here for values at or beyond the usual limits of such assays
HLA-A*02:03 [10] = experiment: as above; details: source organism: Homo sapiens
HLA-A*02:11 [11] = experiment: as above; details: source organism: Homo sapiens
HLA-A*02:12 [12] = experiment: as above; details: source organism: Homo sapiens
HLA-A*02:16 [13] = experiment: as above; details: source organism: Homo sapiens
HLA-A*02:19 [14] = experiment: as above; details: source organism: Homo sapiens
HLA-A*03:01 [15] = experiment: as above; details: source organism: Homo sapiens
HLA-A*24:03 [16] = experiment: as above; details: source organism: Homo sapiens
HLA-A*26:01 [17] = experiment: as above
HLA-A*68:02 = experiment: as above; details: source organism: Homo sapiens
HLA-A*69:01 [18] = experiment: as above; details: source organism: Homo sapiens
HLA-B*15:01 [19] = experiment: as above
HLA-B*15:17 = experiment: as above; details: source organism: Homo sapiens
HLA-B*18:01 [20] = experiment: as above
HLA-B*27:03 = experiment: as above
HLA-B*39:01 [21] = experiment: as above; details: source organism: Homo sapiens
HLA-B*46:01 [22] = experiment: as above
HLA-B*57:01 [23] = experiment: as above
HLA-A*02:03 [24] = experiment: IEDB peptide-MHC binding, purified MHC/direct/fluorescence; filed as Kd, often an IC50 or EC50 that approximates it; ≥ and ≤ were set here for values at or beyond the usual limits of such assays; details: source organism: Limestone Canyon virus
HLA-A*02:11 [25] = experiment: as above; details: source organism: Limestone Canyon virus
HLA-A*02:12 [26] = experiment: as above; details: source organism: Limestone Canyon virus
HLA-A*02:16 [27] = experiment: as above; details: source organism: Limestone Canyon virus
HLA-A*02:19 [28] = experiment: as above; details: source organism: Limestone Canyon virus
HLA-A*24:03 [29] = experiment: as above; details: source organism: Limestone Canyon virus
HLA-A*29:02 = experiment: as above; details: source organism: Limestone Canyon virus
HLA-B*39:01 [30] = experiment: as above; details: source organism: Orthohantavirus sinnombreense
HLA-B*51:01 = experiment: IEDB peptide-MHC binding, purified MHC/competitive/fluorescence; filed as Kd, often an IC50 or EC50 that approximates it; ≥ and ≤ were set here for values at or beyond the usual limits of such assays; details: source organism: Orthohantavirus sinnombreense
[31] = source organism: Vibrio parahaemolyticus
[32] = source organism: Haemophilus influenzae
[33] = source organism: Yellow fever virus
[34] = source organism: Orthohantavirus sinnombreense

Sequence: AFDWPELEF
- Kd (HLA-A*01:01; [31]): ≥ 20 µM
- Kd (HLA-A*02:01 [1]; [31]): ≥ 20 µM
- Kd (HLA-A*03:01 [2]; [31]): ≥ 20 µM
- Kd (HLA-A*11:01; [31]): ≥ 20 µM
- Kd (HLA-A*26:01 [3]; [31]): ≥ 20 µM
- Kd (HLA-A*31:01; [31]): ≥ 20 µM
- Kd (HLA-A*69:01 [4]; [31]): ≥ 20 µM
- Kd (HLA-B*07:02; [31]): ≥ 20 µM
- Kd (HLA-B*08:01; [31]): ≥ 20 µM
- Kd (HLA-B*27:05; [31]): ≥ 20 µM
- Kd (HLA-B*35:01; source organism: Vibrio vulnificus): 0.0772 µM
- Kd (HLA-B*44:02; [31]): ≥ 20 µM

- Kd (HLA-A*01:01; [32]): ≥ 20 µM
- Kd (HLA-A*02:01 [1]; [32]): ≥ 20 µM
- Kd (HLA-A*03:01 [2]; [32]): ≥ 20 µM
- Kd (HLA-A*11:01; [32]): ≥ 20 µM
- Kd (HLA-A*26:01 [3]; [32]): 0.568 µM
- Kd (HLA-A*31:01; [32]): ≥ 20 µM
- Kd (HLA-A*69:01 [4]; [32]): ≥ 20 µM
- Kd (HLA-B*07:02; [32]): 1.06 µM
- Kd (HLA-B*08:01; [32]): 2.64 µM
- Kd (HLA-B*15:01 [5]; [32]): ≥ 20 µM
- Kd (HLA-B*27:05; [32]): ≥ 20 µM
- Kd (HLA-B*35:01; [32]): 0.0509 µM
- Kd (HLA-B*40:01; [32]): ≥ 20 µM
- Kd (HLA-B*58:01; [32]): ≥ 20 µM
Sequence: EIKFNDITF

Sequence: FHKRDMRLL
- Kd (HLA-A*01:01; [33]): ≥ 20 µM
- Kd (HLA-A*02:01 [1]; [33]): ≥ 20 µM
- Kd (HLA-A*03:01 [2]; [33]): ≥ 20 µM
- Kd (HLA-A*11:01; [33]): ≥ 20 µM
- Kd (HLA-A*31:01; [33]): ≥ 20 µM
- Kd (HLA-A*69:01 [4]; [33]): ≥ 20 µM
- Kd (HLA-B*07:02; [33]): ≥ 20 µM
- Kd (HLA-B*15:01 [5]; [33]): ≥ 20 µM
- Kd (HLA-B*15:09): 3 µM
- Kd (HLA-B*18:01 [6]): ≥ 20 µM
- Kd (HLA-B*27:05; [33]): ≥ 20 µM
- Kd (HLA-B*40:01; [33]): ≥ 20 µM
- Kd (HLA-B*44:02; [33]): ≥ 20 µM
- Kd (HLA-B*46:01 [7]): ≥ 20 µM
- Kd (HLA-B*48:01): ≥ 20 µM
- Kd (HLA-B*57:01 [8]): ≥ 20 µM
- Kd (HLA-B*58:01; [33]): ≥ 20 µM

- Kd (HLA-A*02:01 [9]; source organism: Homo sapiens): ≥ 20 µM
- Kd (HLA-A*02:03 [10]): ≥ 20 µM
- Kd (HLA-A*02:11 [11]): ≥ 20 µM
- Kd (HLA-A*02:12 [12]): ≥ 20 µM
- Kd (HLA-A*02:16 [13]): ≥ 20 µM
- Kd (HLA-A*02:19 [14]): ≥ 20 µM
- Kd (HLA-A*03:01 [15]): ≥ 20 µM
- Kd (HLA-A*24:03 [16]): ≥ 20 µM
- Kd (HLA-A*26:01 [17]; source organism: Homo sapiens): ≥ 20 µM
- Kd (HLA-A*68:02): ≥ 20 µM
- Kd (HLA-A*69:01 [18]): ≥ 20 µM
- Kd (HLA-B*15:01 [19]; source organism: Homo sapiens): ≥ 20 µM
- Kd (HLA-B*15:17): ≥ 20 µM
- Kd (HLA-B*18:01 [20]; source organism: Homo sapiens): ≥ 20 µM
- Kd (HLA-B*27:03; source organism: Homo sapiens): ≥ 20 µM
- Kd (HLA-B*39:01 [21]): ≥ 20 µM
- Kd (HLA-B*46:01 [22]; source organism: Homo sapiens): ≥ 20 µM
- Kd (HLA-B*57:01 [23]; source organism: Homo sapiens): ≥ 20 µM
Sequence: FWAWSVLRV

Sequence: YKSRCYVGL
- Kd (HLA-A*02:03 [24]): ≥ 20 µM
- Kd (HLA-A*02:11 [25]): ≥ 20 µM
- Kd (HLA-A*02:12 [26]): ≥ 20 µM
- Kd (HLA-A*02:16 [27]): ≥ 20 µM
- Kd (HLA-A*02:19 [28]): ≥ 20 µM
- Kd (HLA-A*03:01 [2]; source organism: Limestone Canyon virus): ≥ 20 µM
- Kd (HLA-A*24:03 [29]): ≥ 20 µM
- Kd (HLA-A*29:02): ≥ 20 µM
- Kd (HLA-B*39:01 [30]): 0.293 µM
- Kd (HLA-A*02:01 [9]; [34]): ≥ 20 µM
- Kd (HLA-A*26:01 [17]; [34]): ≥ 20 µM
- Kd (HLA-B*15:01 [19]; [34]): ≥ 20 µM
- Kd (HLA-B*18:01 [20]; [34]): ≥ 20 µM
- Kd (HLA-B*27:03; [34]): ≥ 20 µM
- Kd (HLA-B*46:01 [22]; [34]): ≥ 20 µM
- Kd (HLA-B*51:01): ≥ 20 µM
- Kd (HLA-B*57:01 [23]; [34]): ≥ 20 µM
